Results as given in PMC7090010.
Values belong to the substance of their own block, whether it stands above or below them.

Assays:
Conditions in all cases: scale: % of the maximum spliced product formation
[1] = biological target: split mCherry-split intein C-terminal chimeric protein, gp41-1 intein split at site S2
[2] = biological target: split mCherry-split intein C-terminal chimeric protein, SspGyrB intein split at site S2
[3] = biological target: split mCherry-split intein C-terminal chimeric protein, NrdJ-1 intein split at site S2
[4] = biological target: split mCherry-split intein C-terminal chimeric protein, gp41-8 intein split at site S2
[5] = biological target: split mCherry-split intein C-terminal chimeric protein, IMPDH-1 intein split at site S2

in vitro trans-splicing of mixed lysates (room temperature, 100 mM Tris-HCl pH 9.0, 100 mM NaCl, 2 mM DTT): spliced mCherry by Western blot, share of the maximum spliced product within 1 h [2]: > 75
Substance: split mCherry-split intein N-terminal chimeric protein, SspGyrB intein split at site S2 (domain or fragment)

in vitro trans-splicing of mixed lysates (room temperature, 100 mM Tris-HCl pH 9.0, 100 mM NaCl, 2 mM DTT): spliced mCherry by Western blot, share of the maximum spliced product within 1 h [3]: > 75
Substance: split mCherry-split intein N-terminal chimeric protein, NrdJ-1 intein split at site S2 (domain or fragment)

in vitro trans-splicing of mixed lysates (room temperature, 100 mM Tris-HCl pH 9.0, 100 mM NaCl, 2 mM DTT): spliced mCherry by Western blot, share of the maximum spliced product within 1 h [4]: > 75
Substance: split mCherry-split intein N-terminal chimeric protein, gp41-8 intein split at site S2 (domain or fragment)

Further lines, the substance ahead of its results:

Substance: split mCherry-split intein N-terminal chimeric protein, gp41-1 intein split at site S2 (domain or fragment)
in vitro trans-splicing of mixed lysates (room temperature, 100 mM Tris-HCl pH 9.0, 100 mM NaCl, 2 mM DTT): spliced mCherry by Western blot, share of the maximum spliced product within 1 h [1]: > 75

Substance: split mCherry-split intein N-terminal chimeric protein, IMPDH-1 intein split at site S2 (domain or fragment)
in vitro trans-splicing of mixed lysates (room temperature, 100 mM Tris-HCl pH 9.0, 100 mM NaCl, 2 mM DTT): spliced mCherry by Western blot, share of the maximum spliced product within 1 h [5]: > 75
